From the RNAGym collection of RNA variant scans (doi:10.7554/elife.80360)

B1: HDV Ribozyme (parent)
chain: GGCCGGCAUGGUCCCAGCCUCCUCGCUGGCGCCGGCUGGGCAACAUUCCGAGGGGACCGUCCCCUCGGUAAUGGCGAAUGGGACCCA

Variants of: B1
Experiment: self-cleavage, relative activity (ratio to wild type); higher = more cleavage; co-transcriptional

Variant | self-cleavage
G39U C64A | 0.649
G39U G55U | 0.677
G39U G55A | 0.831
G39U G54U | 0.722
G39U G54A | 0.59
G39C A71G | 0.158
G39C A71U | 0.229
G40C C63A | 0.475
G39U C85A | 0.609
G40A C58A | 0.906
G40A C58U | 1.18
G40U C44A | 0.107
G40U C44U | 0.143
G39U U65G | 0.583
G40U A71G | 0.46
G40U A71U | 0.459
G40C G81A | 0.0755
G40C G81C | 0.115
G40C C49U | 0.125
G40C C49A | 0.381
G40A A77U | 0.523
G40U C58G | 0.598
G40U C41U | 0.937
G39C G67U | 0.277

Variant | self-cleavage
G40A G80A | 0.427
G40A G80U | 0.217
G40A G80C | 0.161
G40A C86A | 1.2
G40A C85U | 1.1
G40A C85G | 0.807
G40C G68U | 0.245
G40C G68A | 0.201
G39C G54C | 0.253
G39C G54U | 0.222
G40C G67A | 0.23
G40C G67C | 0.439
G39U G67U | 0.727
G40C C41A | 0.706
G40A U46A | 0.437
G40U C63A | 0.793
G39U A77U | 0.102
G40A C75U | 0.157
G39C C57A | 0.141
G40U G50A | 0.577
G40U G50C | 0.626
G40U A70U | 0.69
G40U C57A | 0.719
G40U C57G | 0.712

Variant | self-cleavage
G39C G50U | 0.345
G39C G50C | 0.104
G40C C58G | 0.264
G40C C58A | 0.151
G39U C84U | 0.492
G39C C44G | 0
G39C C44A | 0.271
G40C U79A | 0.19
G40C U79G | 0.138
G40A A42C | 0.543
G40A U72C | 0.504
G40C G54U | 0.205
G40C G54A | 0.398
G39U C49G | 0.665
G40A A45C | 0.671
G40A A45U | 0.563
G40C U65A | 0.326
G39U G82A | 0.27
G39C G73A | 0.0339
G40C C84G | 0.128
G40C C84U | 0.0852
G39U G52U | 0.66
G39U G52A | 0.772
G40C G82U | 0.0978

Variant | self-cleavage
G40C G82A | 0.233
G40C G82C | 0.188
G39U G80A | 0.151
G39U G80U | 0.119
G39U U72A | 0.13
G39U U72C | 0.0573
G40C A43C | 0.123
G40A U60C | 1.11
G40A U60A | 1
G40A C64A | 0.89
G40A C64G | 0.531
G39C U79G | 0.196
G39C U79C | 0.125
G39C G55C | 0.31
G39U G59U | 1.02
G39U G59C | 0.671
G40U C75U | 0.271
G40U C75A | 0.12
G39U U46C | 0.486
G39U U46G | 0.222
G39U U46A | 0.285
G40C A45C | 0.0845
G40A G81U | 0.342
G40A G81C | 0.29

Variant | self-cleavage
G39C C41G | 0.462
G40C G76U | 0.346
G39U C86U | 0.858
G39U C86A | 0.796
G40C A77U | 0.128
G39C U69C | 0.401
G40A C63G | 0.46
G40A C63A | 0.856
G40A C63U | 0.895
G40C G55C | 0.347
G40C G55A | 0.121
G40C C64G | 0.242
G40C C64A | 0.138
G40U C86U | 0.688
G40U C86G | 0.562
G40U C86A | 0.682
G40A U47A | 0.997
G40A U47C | 1.03
G40A U47G | 0.831
G39U C41U | 0.966
G40A G82A | 0.358
G40A G67A | 1.12
G40A G67U | 0.919
G40A G67C | 0.992

Variant | self-cleavage
G40C C86G | 0.222
G40A G55U | 1.17
G40A G55A | 0.882
G40A G68C | 0.794
G40U A77G | 0.462
G40U C49G | 0.888
G40A G59U | 0.987
G40A G59C | 0.831
G40A G73C | 0.544
G40A G73A | 0.669
G40A A43G | 0.623
G39C A83G | 0.317
G39C A83U | 0
G39C A83C | 0.243
G39C U47G | 0.199
G40A G53C | 1.01
G40A G53A | 0.882
G40U A56C | 0.639
G40A C57U | 1.13
G40A C57G | 1.02
G40A U79A | 0.513
G40A U79C | 0.41
G40A U79G | 0.755
G40C A70C | 0.208

Variant | self-cleavage
G40C A70U | 0.191
G40C A70G | 0.0941
G40C C61A | 0.256
G40A A51U | 0.844
G40A C48U | 0.793
G40A C48G | 1.06
G40A C48A | 0.941
G40C C75G | 0.166
G40C C75A | 0.0326
G39U A70U | 0.831
G39C U46G | 0.262
G39C U46C | 0.214
G39C U46A | 0.19
G39U | 0.727
G40C G50U | 0.269
G40C G50A | 0.219
G40C G50C | 0.225
G39U C44U | 0.211
G40C A87C | 0.245
G40C A87U | 0.325
G40A A56G | 1.11
G40A A56C | 0.878
G40C C66U | 0.249
